Biological target: multiubiquitinated proteins (of HEK293T cells)
Test: cell-based or functional assay

Chain of Flag-tagged hFAF1 (human Fas associated factor 1, full form) (Q9UNN5 other isoform, or with tags, fused parts or gaps): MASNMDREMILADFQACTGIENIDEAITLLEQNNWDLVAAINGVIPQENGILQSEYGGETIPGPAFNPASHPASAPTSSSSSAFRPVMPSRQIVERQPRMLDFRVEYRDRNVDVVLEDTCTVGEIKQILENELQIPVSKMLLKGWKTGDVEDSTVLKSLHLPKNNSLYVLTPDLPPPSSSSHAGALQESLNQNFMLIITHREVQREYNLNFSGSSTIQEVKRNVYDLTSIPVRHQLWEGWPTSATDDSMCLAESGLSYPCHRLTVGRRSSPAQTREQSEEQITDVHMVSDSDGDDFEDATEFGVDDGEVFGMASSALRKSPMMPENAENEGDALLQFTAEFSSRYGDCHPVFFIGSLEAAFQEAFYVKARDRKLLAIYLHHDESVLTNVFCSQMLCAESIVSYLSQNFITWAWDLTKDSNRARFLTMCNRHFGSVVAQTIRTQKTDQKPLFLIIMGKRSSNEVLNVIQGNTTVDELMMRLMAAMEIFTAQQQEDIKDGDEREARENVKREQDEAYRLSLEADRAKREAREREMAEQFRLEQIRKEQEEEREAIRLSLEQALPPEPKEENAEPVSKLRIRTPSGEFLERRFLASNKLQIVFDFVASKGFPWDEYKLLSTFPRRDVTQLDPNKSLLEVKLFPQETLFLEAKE

“Flag-tagged hFAF1 (human Fas associated factor 1, full form) (from UniProt Q9UNN5 1-650)” gave a mean fluorescence intensity of the Ub^G76V-GFP reporter (flow cytometry) of 2 fold.
